Measurements: article PMC13486704 (2026)

Assays:
[1] = biological target: HCMV protease (Human cytomegalovirus) (UniProt P16753); details: cited from earlier work
[2] = biological target: the molecule itself

**Q.** For HCMV protease (from UniProt P16753), which Kd [1] is on record?
**A.** 5.8 µM

B1: HCMV protease (protein)
chain: MTMDEQQSQAVAPVYVGGFLARYDQSPDEAELLLPRDVVEHWLHAQGQGQPSLSVALPLNINHDDTAVVGHVAAMQSVRDGLFCLGCVTSPRFLEIVRRASEKSELVSRGPVSPLQPDKVVEFLSGSYAGLSLSSRRCDDVEAATSLSGSETTPFKHVALCSVGRRRGTLAVYGRDPEWVTQRFPDLTAADRDGLRAQWQRCGSTAVDASGDPFRSDSYGLLGNSVDALYIRERLPKLRYDKQLVGVTERESYVKA
**Q.** With B1 as the molecule, how does the Kd [2] read?
**A.** ~70 µM
